Assay results published in article PMC6907008.

Key:
[1] = molecular target: T1, HisZea (Lmo2686) (Listeria monocytogenes EGD-e) (UniProt Q8Y3Z3); assay: EMSA; conditions: EMSA: 50 mM Tris pH 8.0, 300 mM NaCl, 10% glycerol, 50 ug/mL BSA, 1 ug yeast tRNA, 20 min room temperature; pull-down: 25 mM Tris pH 8.0, 150 mM KCl, 5 mM …
T1 sequence: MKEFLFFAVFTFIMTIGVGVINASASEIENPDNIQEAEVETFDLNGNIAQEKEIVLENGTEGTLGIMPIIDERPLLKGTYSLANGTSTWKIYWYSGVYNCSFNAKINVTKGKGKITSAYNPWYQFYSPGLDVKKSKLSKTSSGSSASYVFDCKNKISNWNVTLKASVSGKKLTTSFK

[2] = molecular target: T1, HisZea (Lmo2686) (Listeria monocytogenes EGD-e); assay: competition; conditions: EMSA: 50 mM Tris pH 8.0, 300 mM NaCl, 10% glycerol, 50 ug/mL BSA, 1 ug yeast tRNA, 20 min room temperature; pull-down: 25 mM Tris pH 8.0, 150 mM KCl, 5 mM …

| Sequence | binding [1] | binding [2] |
| --- | --- | --- |
| GGGUGUAAAAUGCAGCUUGAGUAAAAUGAAUGAGUGUGUUGUUUACCCCCAGAUUUAAUUCUGUGGUAUAUCGCGUAACCGGCGGCUGCUAUGGUGAUGGUAUAUGAAGGUAAACUGCCCUGAUUUGGUUUUACGUCACGUUUGUUUUAUAC [rli92] | binds | binds |
| GGAGUAGAAAAGACCAAUGUGGGUUCUUUUUUAUUUUGUCUUAAUAACUCUAAACCACAGACAAAUAUAAAUUGGAAAUCAACGUAAUAAUCGUAUUUCCUAUUACAAUAAUCGAGAUAUUGUCACACCCUGAAAUAUAAUUGUAAUGCAAUUAACCUAUAGAUGAAAAACUGU [rli143] | binds | binds |
